# Measurements: patent US7521540B2, “CYR61 compositions and methods” (Munin Corporation, priority 1996, dated 2009)
# B1: Cyr61: Cysteine-rich ECM signaling protein; murine sequence SEQ ID NO:2, recombinant from Baculovirus-infected Sf9 cells (protein, listed as Mus musculus)
# chain: MSSSTFRTLAVAVTLLHLTRLALSTCPAACHCPLEAPKCAPGVGLVRDGCGCCKVCAKQLNEDCSKTQPCDHTKGLECNFGASSTALKGICRAQSEGRPCEYNSRIYQNGESFQPNCKHQCTCIDGAVGCIPLCPQELSLPNLGCPNPRLVKVSGQCCEEWVCDEDSIKDSLDDQDDLLGLDASEVELTRNNELIAIGKGSSLKRLPVFGTEPRVLFNPLHAHGQKCIVQTTSWSQCSKSCGTGISTRVTNDNPECRLVKETRICEVRPCGQPVYSSLKKGKKCSKTKKSPEPVRFTYAGCSSVKKYRPKYCGSCVDGRCCTPLQTRTVKMRFRCEDGEMFSKNVMMIQSCKCNYNCPHPNEASFRLYSLFNDIHKFRD
# B2: Fisp12: Cysteine-rich murine protein, SEQ ID NO:6, mouse ortholog of CTGF (protein, listed as Mus musculus)
# chain: MLASVAGPISLALVLLALCTRPATGQDCSAQCQCAAEAAPHCPAGVSLVLDGCGCCRVCAKQLGELCTERDPCDPHKGLFCDFGSPANRKIGVCTAKDGAPCVFGGSVYRSGESFQSSCKYQCTCLDGAVGCVPLCSMDVRLPSPDCPFPRRVKLPGKCCKEWVCDEPKDRTAVGPALAAYRLEDTFGPDPTMMRANCLVQTTEWSACSKTCGMGISTRVTNDNTFCRLEKQSRLCMVRPCEADLEENIKKGKKCIRTPKIAKPVKFELSGCTSVKTYRAKFCGVCTDGRCCTPHRTTTLPVEFKCPDGEIMKKNMMFIKTCACHYNCPGDNDIFESLYYRKMYGDMA
# Tests used:
# [1] = tested on: mink lung epithelial (Mv1Lu) cells; test: Fisp12 cell attachment assay, Mv1Lu cells; type: cell-based; details: coating 20 μg/ml
# Protocol: The capacity of Fisp12 to affect cell adhesion was also investigated. Fisp12 cell attachment assays were performed essentially as described (Oliver et al., [1989]). 96-well immunological plates were coated for 16 hours at 4° C. with 20 μg/ml Cyr61, Fisp12 or fibronectim (Gibco BRL) in PBS containing 0.1 mg/ml BSA and blocked with 10 mg/ml BSA for 1 hour at room temperature. HUVE cells were plated at 10^4 cells/well in F12K media with 10% FBS (Hyclone Laboratories, Inc., Logan, Utah); NIH 3T3 fibroblasts were plated at 3×10^4 cells/well and Mv1Lu cells were plated at 5×10^4 cells/well in minimal essential medium (MEM) with 10% FBS. After 1 hour incubation cells were fixed, stained with methylene blue and quantified as described (Oliver et al., [1989]). Cell spreading was examined on cells plated on 100 mm polystyrene petri dishes coated with 2.5 ml of a 20 μg/ml solution of Cyr61, Fisp12 or fibronectin. 10^7 cells were plated on each dish and cell spreading was analyzed 90 minutes after plating by microscopy at 100× magnification.
# HUVE cells = test: Thymidine incorporation (mitogen potentiation), HUVE cells; type: cell-based, human
# Protocol: Human umbilical vein endothelial cells were plated essentially as described above for 3T3 cells and exposed to a constant amount of murine Cyr61; controls received no Cyr61. Different plates were then exposed to different levels of bFGF, comprising a series of bFGF concentrations ranging from 0-10 ng/ml. […] At 1 ng/ml bFGF, however, HUVE cells increased their thymidine incorporation in the presence of bFGF to 6×10^2 cpm; in the presence of 1 ng/ml bFGF and murine Cyr61, HUVE cells incorporated 1.3×10^3 cpm. At 10 ng/ml bFGF, cells exposed to bFGF incorporated about 1.8×10^3 cpm thymidine; cells receiving 10 ng/ml bFGF and Cyr61 incorporated approximately 6.1×10^3 cpm.
# The capacity of murine Cyr61 to potentiate the mitogenic activity of bFGF was verified by a thymidine incorporation assay involving HUVE cells and various combinations of bFGF, Cyr61, and anti-Cyr61 antibodies. Cells were plated and grown as described above. The following combinations of supplements (final plate concentrations noted parenthetically) were then pre-incubated for 1 hour before addition to individual plates: 1) pre-immune antiserum (3%); 2) bFGF (15 ng/ml) and pre-immune antiserum (3%); 3) pre-immune antiserum (3%) and Cyr61 (4 μg/ml); 4) pre-immune antiserum (3%), Cyr61 (4 μg/ml), and bFGF (15 ng/ml); 5) anti-Cyr61 antiserum (3%); 6) anti-Cyr61 antiserum and bFGF (15 ng/ml); 7) anti-Cyr61 antiserum (3%) and Cyr61 (4 μg/ml); and 8) anti-Cyr61 antiserum (3%), Cyr61 (4 μg/ml), and bFGF (15 ng/ml).
# DNA synthesis for HUVE cells and NIH 3T3 fibroblasts was measured by thymidine incorporation as described previously (Kireeva et al., [1996]) with minor modifications. HUVE cells were grown in 24-well plates to a subconfluent state, serum-starved for 24 hours and treated with F12K medium containing 10% fetal bovine serum (FBS), 1 μCi/ml [^3H]-thymidine and 10 ng/ml basic Fibroblast Growth Factor (bFGF) (Gibco-BRL, Inc.) with various concentrations of Cyr61 and Fisp12 as indicated. NIH 3T3 fibroblasts were grown to subconlfluence, serum-starved for 48 hours, and treated with Minimal Essential Medium (MEM) containing 0.5% FBS, 1 μCi/ml [^3H]-thymidine, bFGF and various concentrations of Cyr61 or Fisp12. Thymidine incorporation into the trichloroacetic acid-insoluble fraction was determined after 24 hour incubation. Logarithmically grown mink lung epithelial cells (Mv1lu, CCL64) were treated with various concentrations of TGF-β1 (Gibco-BRL) and 2 μg/ml of Cyr61 or Fisp12 for 18 hours; [^3H]-thymidine was then added to 1 μCi/ml for 2 hours. Thymidine incorporation was determnined as described above.
# platelets = test: Platelet adhesion assay; type: cell-based, human; details: for adhesion of unactivated platelets: PGl2 100 nM, coating 25 μg/ml; for adhesion of activated platelets: thrombin, U46619 or ADP
# Protocol: Microtiter wells were coated with purified recombinant Fisp12/mCTGF or Cyr61, and the adhesion of isolated platelets to these proteins was detected with ^125I-mAb15, an anti-β3 monoclonal antibody (Frelinger et al., J. Biol. Chem 265:6346-6352 [1990]). Platelets were obtained from venous blood drawn from healthy donors and collected into acid-citrate-dextrose (ACD). Washed platelets were prepared by diffenential centrifugation as described (Kinlough-Rathbone et al. Thromb. Haemostas 2:291-308 [1997]), and finally resuspended in HEPES-Tyrode's buffer (5 mM HEPES, pH 7.35, 1 mM MgCl2, 1 mM CaCl2, 135 mM NaCl, 2.7 mM KCl, 11.9 mM NaHCO3, 1 mg/ml dextrose and 3.5 mg/ml BSA). The platelet concentration was adjusted to […].
# Microtiter wells (Immulon 2 removawell strips, Dynex Technologies, Inc.) were coated with Cyr61, Fisp12/mCTGF, or fibrinogen (25 μg/ml, 50 μl/well) incubated overnight at 22° C., and then blocked with 3% BSA at 37° C. for 2 hours. Washed platelets were added to the wells (100 μl/well) in the presence and absence of platelet agonists and incubated at 37° C. for 30 minutes. The wells were washed with HEPES-Tyrode's buffer and adherent platelets were detected with ^125I-mAb15, an anti-β3 monoclonal antibody. Exposure to the labeled antibody ([…], 50 μl/well) proceeded for 1 hour at 22° C. After extensive washing with HEPES-Tyrode's buffer, bound radioactivity was determined by γ-counting. In inhibition studies, washed platelets were pre-incubated with blocking peptides or antibodies at 37° C. for 15 minutes prior to addition to microtiter wells.
# The anti-β3 antibody was radioiodinated with carrier-free Na^125I (Amersham Corp.) using the IODO-BEADS iodination reagent (Pierce) to a specific activity of approximately 2 μCi/μg. […] As controls, BSA- and fibrinogen-coated (KabiVitrum Inc.) wells were also used. Initially, the adhesion of unactivated versus activated platelets to immobilized Fisp12/mCTGF and Cyr61 was compared. To ensure that plateltes were not activated during the washing procedures, PGl2 (100 nM), which inhibits activation by raising platelet cAMP levels, was added to the platelet suspensions. […]
Molecule,cell attachment to coated dishes [1],"thymidine incorporation, baseline (HUVE cells; 0-0.1 ng/ml bFGF, presence or absence of Cyr61, 72 hours)",thymidine incorporation with bFGF and Cyr61 (HUVE cells; 1 ng/ml bFGF),thymidine incorporation with bFGF and Cyr61 (HUVE cells; 10 ng/ml bFGF),adhesion of unactivated platelets (platelets),adhesion of activated platelets (platelets),"enhancement of FGF-induced DNA synthesis (HUVE cells; HUVE-cells, bFGF 10 ng/ml)"
B1,promoted the attachment,approximately 4×10^2 cpm,1.3×10^3 cpm,approximately 6.1×10^3 cpm,failed to adhere,dramatic increase in platelte adhesion,–
B2,promoted the attachment,–,–,–,failed to adhere,dramatic increase in platelte adhesion,enhance DNA synthesis induced by fibroblast growth factor
